Assay results published in patent US10501552B2, “Multivalent molecules comprising DR5-binding domains” (MacroGenics, Inc., priority 2015, dated 2019).

Tests used:
SKOV3 = test: […]-GLO cell viability assay with vorinostat; assay type: cell-based; settings: SKOV3 (Ovary); 1 μg/ml + 1 μM Vorinostat
[1] = tested on: cell lines obtained from ATCC; test: MTS cell proliferation assay, panel of cell lines; assay type: cell-based; settings: for inhibition of cell growth, antibody alone: any of cell lines examined, not cross-linked; for cytotoxicity when cross-linked: cross-linked by goat anti-mouse IgG Fc antibody
Procedure: Cell lines obtained from ATCC were cultured under standard tissue culture conditions. Each cell line was plated at ˜2×10^4 cells/well (in 96-well plates), and incubated overnight in F12/DMEM media supplemented with 10% FBS. […] Cell viability was determined using Promega CellTiter 96® AQeous Non-Radioactive Cell Proliferation Assay (Cat # G5430) essentially as described in the manufacturer's instructions to assay the amount of soluble formazan produced by cellular reduction of the MTS, which is a measure of the number of viable cells in the culture. Briefly, MTS/PMS regent was added to the wells and the absorbance at 490 nm (referenced at […]) was read in a Molecular Devices ThermoMax microplate reader.
Similar studies were performed over a range of anti-DR5 mAb concentrations from ˜10^−3 nM to ˜10^2 nM. The data for COLO205 cells is provided in FIG. 13, and are representative of cell lines sensitive to the antibodies of the invention.
The cytotoxicity of tetravalent DR5-Binding Molecules of the present invention was investigated. […] His-tagged TRAIL (R&D systems) was used as a positive control.

[2] = tested on: target tumor cells (A549, SKMES, DU145, A375, SKBR3, JIMT); test: LDH release cytotoxicity with PBMC, comparison of DR5×CD3 diabodies; assay type: cell-based, human; settings: VL and VH Domains tested as DR5×CD3 mAb 2 diabodies, 24 hours, 20:1
Procedure: In order to make such a comparison, a bispecific DR5×CD3 diabody having the structure shown in FIG. 1 containing the VL and VH Domains of these anti-DR5 antibodies and the VL and VH Domains of CD3 mAb 2 were prepared essentially as described above. The first and second The prepared diabodies were designated “DR5 mAb 1×CD3 mAb 2”; “DR5 mAb 2×CD3 mAb 2”; “DR5 mAb 3×CD3 mAb 2”; and “DR5 mAb 4×CD3 mAb 2”.
Target tumor cells were incubated with one of these diabodies or with the control diabody (4-4-20×CD3 mAb 2) in the presence of peripheral blood mononuclear cells (PBMC) and target tumor cells for 24 hours at an effector to target cell ratio of 20:1. The percentage cytotoxicity was determined by measuring the release of lactate dehydrogenase (LDH) into the media by damaged cells.
The employed target tumor cells were: A549 adenocarcinomic human alveolar basal epithelial cells (FIG. 10A), SKMES human lung cancer cells (FIG. 10B), DU145 human prostate cancer cells (FIG. 10C), A375 human malignant melanoma cells (FIG. 10D), SKBR3 human HER2-overexpressing breast carcinoma cells (FIG. 10E), and JIMT human breast carcinoma cells (FIG. 10F).

MDA-MB-175VII = test: […]-GLO cell viability assay with vorinostat; assay type: cell-based; settings: MDA-MB-175VII (Breast); 1 μg/ml + 1 μM Vorinostat
NCI-N87 = test: […]-GLO cell viability assay with vorinostat; assay type: cell-based; settings: NCI-N87 (Stomach); 1 μg/ml + 1 μM Vorinostat
PC3 = test: […]-GLO cell viability assay with vorinostat; assay type: cell-based; settings: PC3 (Prostate); 1 μg/ml + 1 μM Vorinostat
COLO205 = test: […]-GLO cell viability assay with vorinostat; assay type: cell-based; settings: for synergy with vorinostat: 0.1 or 1 μM vorinostat; for Average % Ctrl: one day
Procedure: For the first study COLO205 cells were plated at 2×10^4 cells/well (in 96-well plates), and incubated overnight in F12/DMEM media supplemented with 10% FBS. […] Cell viability was determined using Promega […]-GLO® Luminescent Cell Viability Assay (Cat # G5430) essentially as described in the manufacturer's instructions to assay the amount of ATP present, which is a measure of the number of viable cells in the culture. Briefly, an […]-GLO® Reagent was added to the wells and mixed for two minutes to induce lysis and the luminescence was read in a in PerkinElmer EnVision multilabel plate reader.
Cell viability of cells treated with the test articles is normalized to the corresponding negative control (medium±vorinostat) which is set to 100% and reported in Table 12 as % of control for each test agent alone or % control for each test agent in combination with vorinostat. % of control values less than 100% indicate a reduction in viability and reflect the cytotoxicity of the test article alone or in combination with vorinostat.
The Net Gain (Average % Growth Inhibition)=% Medium Ctrl (10% FBS)−% Medium Ctrl (1/10 μM vorinostat), and represents increased cytotoxicity of the test article in combination with vorinostat over cells treated with vorinostat alone.

LNCap = test: […]-GLO cell viability assay with vorinostat; assay type: cell-based, human; settings: LNCap (Prostate); 1 μg/ml + 10 μM Vorinostat
MDA-MB-361 = test: […]-GLO cell viability assay with vorinostat; assay type: cell-based; settings: MDA-MB-361 (Breast); 1 μg/ml + 10 μM Vorinostat
A549 = test: […]-GLO cell viability assay with vorinostat; assay type: cell-based, human; settings: A549 (Lung); 1 μg/ml + 10 μM Vorinostat
[3] = target: cynomolgus monkey DR5 (His-tagged); test: Biacore analysis of binding kinetics; set-up: ka / kd: unit not given here; settings: tested as DR5×CD3 mAb 2 diabody
Procedure: Bispecific DR5×CD3 diabodies were incubated with His-tagged DR5 and the kinetics of binding was determined via Biacore analysis. […] FIG. 6, Panels A-D show the results for human DR5. FIG. 6, Panels E-H show the results for cynomolgus monkey DR5.

BT474 = test: […]-GLO cell viability assay with vorinostat; assay type: cell-based; settings: BT474 (Breast); 1 μg/ml + 10 μM Vorinostat
Hs700T = test: […]-GLO cell viability assay with vorinostat; assay type: cell-based; settings: Hs700T (Pancreas); 1 μg/ml + 1 μM Vorinostat
DR5-Fc fusion = test: binding to immobilized DR5-Fc fusion in presence of TRAIL; set-up: species or system human; settings: for amount of immobilized biotinylated antibody: 2 μg/mL biotinylated, 1 μg/mL DR5-Fc fusion coat
Procedure: The amount of immobilized biotinylated antibody was assessed.

ES2 = test: […]-GLO cell viability assay with vorinostat; assay type: cell-based; settings: ES2 (Ovary); 1 μg/ml + 10 μM Vorinostat
[4] = Vorinostat 0 μM, % Medium Ctrl (10% FBS), 10 ng/ml tetravalent molecule or 1 μg/ml DR5 mAb
[5] = Vorinostat 0.1 μM, normalized to medium + vorinostat
[6] = Vorinostat 1 μM, normalized to medium + vorinostat

Sequence of DR5-Fc fusion (as listed by the source): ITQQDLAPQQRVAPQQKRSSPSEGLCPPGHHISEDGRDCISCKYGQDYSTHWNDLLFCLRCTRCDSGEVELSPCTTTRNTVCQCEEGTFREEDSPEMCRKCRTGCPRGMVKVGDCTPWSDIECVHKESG

| Molecule | Net Gain (Average % Growth Inhibition) (SKOV3) [%] | inhibition of cell growth, antibody alone [1] | cytotoxicity when cross-linked [1] | potency in inducing cytotoxicity versus reference DR5 mAbs [2] | Net Gain (Average % Growth Inhibition) (MDA-MB-175VII) [%] | Net Gain (Average % Growth Inhibition) (NCI-N87) [%] | Net Gain (Average % Growth Inhibition) (PC3) [%] | synergy with vorinostat (COLO205) | Average % Ctrl (COLO205; [4]) [%] | Net Gain (Average % Growth Inhibition) (COLO205; Vorinostat 0.1 μM) [%] | Average % Ctrl (COLO205; [5]) [%] | Net Gain (Average % Growth Inhibition) (COLO205; Vorinostat 1 μM) [%] | Average % Ctrl (COLO205; [6]) [%] | Net Gain (Average % Growth Inhibition) (LNCap) [%] | Net Gain (Average % Growth Inhibition) (MDA-MB-361) [%] | Net Gain (Average % Growth Inhibition) (A549) [%] | Kd [3] [nM] | ka [3] | kd [3] | Net Gain (Average % Growth Inhibition) (BT474) [%] | also measured |
| --- | --- | --- | --- | --- | --- | --- | --- | --- | --- | --- | --- | --- | --- | --- | --- | --- | --- | --- | --- | --- | --- |
| DR5 mAb 1: anti-human DR5 monoclonal antibody; VL SEQ ID NO:3, VH SEQ ID NO:8 (antibody, listed as Mus musculus, V domains shown, (1)..(121) Anti-DR5 Antibody mAb 1 Heavy Chain Variable Region; (1)..(111) Anti-DR5 Antibody mAb 1 Light Chain Variable Region) VH: EVKFLESGGGLVQPGGSLKLSCVASGFDFSRYWMSWVRQAPGKGLEWIGEINPDSNTINYTPSLKDKFIISRDNAKNTLYLQMTKVRSEDTALYYCTRRAYYGNPAWFAYWGQGTLVTVSS VL: DIVLTQSPASLAVSLGQRATISCRASKSVSSSGYSYMHWYQQKPGQPPKVLIFLSSNLDSGVPARFSGSGSGTDFTLNIHPVEDGDAATYYCQHSRDLPPTFGGGTKLEIK | 1.75 | neither DR5 mAb 1, nor DR5 mAb 2 alone is capable of inhibiting cell growth | potent cytotoxicity | more potent | 0.95 | 0.12 | 1.59 | did not synergize | 96.8 | 0 | 96.4 | 3 | 93.3 | 3.81 | 5.11 | 6.48 | 32.5 | 4.0 × 10^6 | 1.3 × 10^−1 | 2.15 | Net Gain (Average % Growth Inhibition) (Hs700T): 0.22%; effect of histidine tagged TRAIL on amount bound to immobilized DR5-Fc (DR5-Fc fusion): not affected; amount of immobilized biotinylated antibody (DR5-Fc fusion; 20 μg/mL TRAIL-His): 1.939; amount of immobilized biotinylated antibody (DR5-Fc fusion; Buffer): 2.118; Net Gain (Average % Growth Inhibition) (ES2): 4.17% |
| DR5 mAb 2: murine anti-human DR5 monoclonal antibody; VL SEQ ID NO:13, VH SEQ ID NO:18 (antibody, listed as Mus musculus, V domains shown, (1)..(119) Anti-DR5 Antibody mAb 2 Heavy Chain Variable Region; (1)..(107) Anti-DR5 Antibody mAb 2 Light Chain Variable Region) VH: KVQLQQSGAELVKPGASVKLSCKASGYTFTEYILHWVKQKSGQGLEWIGWFYPGNNNIKYNEKFKDKATLTADKSSSTVYMELSRLTSEDSAVYFCARHEQGPGYFDYWGQGTTLTVSS VL: DIVMTQSHKFMSTSVGDRVSITCKASQDVNTAVAWYQQKPGQSPKLLIYWASTRHTGVPDRFTGSGSGTDYTLTIKSVQAEDLTLYYCQQHYITPWTFGGGTKLEIK | 1.75 | neither DR5 mAb 1, nor DR5 mAb 2 alone is capable of inhibiting cell growth | potent cytotoxicity | more potent | 0.95 | 0.36 | 1.59 | did not synergize | 96.4 | 0 | 96.5 | 1 | 95.5 | 4.49 | 5.11 | 6.48 | 0.42 | 2.4 × 10^5 | 1.0 × 10^−4 | 2.23 | Net Gain (Average % Growth Inhibition) (Hs700T): 0.22%; effect of histidine tagged TRAIL on amount bound to immobilized DR5-Fc (DR5-Fc fusion): not affected; amount of immobilized biotinylated antibody (DR5-Fc fusion; 20 μg/mL TRAIL-His): 2.052; amount of immobilized biotinylated antibody (DR5-Fc fusion; Buffer): 2.052; Net Gain (Average % Growth Inhibition) (ES2): 4.17% |
